Several values for one entry are separate records, joined by “and”; a condition that tells them apart may be missing. Identical values can stand only once.
B1: CERT central core domain (CCD), purified recombinant CERT 151-309 WT (domain or fragment, human, UniProt Q9Y5P4-1 151-309, looked up)
chain: FKKGHSLREKLAEMETFRDILCRQVDTLQKYFDACADAVSKDELQRDKVVEDDEDDFPTTRSDGDFLHSTNGNKEKLFPHVTPKGINGIDFKGEAITFKATTAGILATLSHCIELMVKREDSWQKRLDKETEKKRRTEEAYKNAMTELKKKSHFGGPDY
notes: human CERT (CERT1 isoform 1, CERTL), residues 151-309, central core domain; Theoretical MW is printed as 18.5 kDa; also called CERT CCD; source: recombinant, purified
B2: CERT construct encompassing the PH plus CCD domains (aa 1-341) (domain or fragment, human, UniProt Q9Y5P4-1 1-341, looked up)
chain: MSDNQSWNSSGSEEDPETESGPPVERCGVLSKWTNYIHGWQDRWVVLKNNALSYYKSEDETEYGCRGSICLSKAVITPHDFDECRFDISVNDSVWYLRAQDPDHRQQWIDAIEQHKTESGYGSESSLRRHGSMVSLVSGASGYSATSTSSFKKGHSLREKLAEMETFRDILCRQVDTLQKYFDACADAVSKDELQRDKVVEDDEDDFPTTRSDGDFLHSTNGNKEKLFPHVTPKGINGIDFKGEAITFKATTAGILATLSHCIELMVKREDSWQKRLDKETEKKRRTEEAYKNAMTELKKKSHFGGPDYEEGPNSLINEEEFFDAVEAALDRQDKIEEQSQ
notes: human CERT (CERT1 isoform 1, CERTL), residues 1-341, PH plus CCD domains
B3: ceramide transporter CERT, recombinant full-length (CERT1 isoform 1, CERTL) (natural protein, human, UniProt Q9Y5P4-1 1-624, looked up)
chain: MSDNQSWNSSGSEEDPETESGPPVERCGVLSKWTNYIHGWQDRWVVLKNNALSYYKSEDETEYGCRGSICLSKAVITPHDFDECRFDISVNDSVWYLRAQDPDHRQQWIDAIEQHKTESGYGSESSLRRHGSMVSLVSGASGYSATSTSSFKKGHSLREKLAEMETFRDILCRQVDTLQKYFDACADAVSKDELQRDKVVEDDEDDFPTTRSDGDFLHSTNGNKEKLFPHVTPKGINGIDFKGEAITFKATTAGILATLSHCIELMVKREDSWQKRLDKETEKKRRTEEAYKNAMTELKKKSHFGGPDYEEGPNSLINEEEFFDAVEAALDRQDKIEEQSQSEKVRLHWPTSLPSGDAFSSVGTHRFVQKPYSRSSSMSSIDLVSASDDVHRFSSQVEEMVQNHMTYSLQDVGGDANWQLVVEEGEMKVYRREVEENGIVLDPLKATHAVKGVTGHEVCNYFWNVDVRNDWETTIENFHVVETLADNAIIIYQTHKRVWPASQRDVLYLSVIRKIPALTENDPETWIVCNFSVDHDSAPLNNRCVRAKINVAMICQTLVSPPEGNQEISRDNILCKITYVANVNPGGWAPASVLRAVAKREYPKFLKRFTSYVQEKTAGKPILF
notes: human ceramide transporter CERT (CERT1), isoform 1 (CERTL), NP_005704; full-length recombinant protein; also called CERT WT; source: recombinant

Tests used:
[1] = target: the molecule itself; assay: native MS; native MS of purified recombinant CERT 151-309 WT; deconvoluted mass spectrum
[2] = target: the molecule itself; assay: SEC-MALS; size-exclusion chromatography coupled to multiangle light scattering of recombinant CERT constructs; absolute molar mass

Protein | stoichiometry N [1] | stoichiometry N [2]
B1 | 2 and 4 | 
B2 |  | 2
B3 |  | 2

Source: PMC10178846, “CERT1 mutations perturb human development by disrupting sphingolipid homeostasis” (The Journal of Clinical Investigation, 2023)
